Measured values reported in patent US20170176432A1 (OSAKA UNIVERSITY, published 2017).
One block for each binder: values may come before it.

Experiments:
human thyroglobulin (TG) [1] = biological target: T1, human thyroglobulin (TG) (human, UniProt P01266 20-2768); experiment: flow cytometry of surface TG (anti-histidine antibody) on 293T; HLA-DRB1*01:03
T1 construct: whole, on cells; the tag is not described

[2] = biological target: T2, human β2-glycoprotein I (β2-GPI) (human, UniProt P02749 20-345); experiment: flow cytometry of surface β2-GPI on 293T; HLA-DRB1*01:03
T2 construct: whole, on cells
T2 sequence (looked up): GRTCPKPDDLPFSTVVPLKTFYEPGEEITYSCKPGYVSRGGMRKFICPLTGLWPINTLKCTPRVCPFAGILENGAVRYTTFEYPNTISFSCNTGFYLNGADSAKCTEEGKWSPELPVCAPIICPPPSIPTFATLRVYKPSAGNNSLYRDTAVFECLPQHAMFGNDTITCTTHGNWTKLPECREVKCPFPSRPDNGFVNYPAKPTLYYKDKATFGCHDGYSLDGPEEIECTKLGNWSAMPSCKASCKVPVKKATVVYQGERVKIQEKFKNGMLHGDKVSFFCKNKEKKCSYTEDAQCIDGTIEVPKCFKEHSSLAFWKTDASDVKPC

[3] = biological target: T2, human β2-glycoprotein I (β2-GPI); experiment: flow cytometry of surface β2-GPI on 293T; HLA-DRB1*03:01
[4] = biological target: T2, human β2-glycoprotein I (β2-GPI); experiment: flow cytometry of surface β2-GPI on 293T; HLA-DRB1*04:02
[5] = biological target: T2, human β2-glycoprotein I (β2-GPI); experiment: flow cytometry of surface β2-GPI on 293T; HLA-DRB1*09:01
[6] = biological target: T2, human β2-glycoprotein I (β2-GPI); experiment: flow cytometry of surface β2-GPI on 293T; HLA-DRB1*08:03
[7] = biological target: T2, human β2-glycoprotein I (β2-GPI); experiment: flow cytometry of surface β2-GPI on 293T; HLA-DRB1*08:01
[8] = biological target: T2, human β2-glycoprotein I (β2-GPI); experiment: flow cytometry of surface β2-GPI on 293T; HLA-DRB1*10:01
[9] = biological target: T2, human β2-glycoprotein I (β2-GPI); experiment: flow cytometry of surface β2-GPI on 293T; HLA-DRB1*14:02
[10] = biological target: T2, human β2-glycoprotein I (β2-GPI); experiment: flow cytometry of surface β2-GPI on 293T; HLA-DRB1*13:02
[11] = biological target: T2, human β2-glycoprotein I (β2-GPI); experiment: flow cytometry of surface β2-GPI on 293T; HLA-DRB1*04:03
[12] = biological target: T2, human β2-glycoprotein I (β2-GPI); experiment: flow cytometry of surface β2-GPI on 293T; HLA-DRB1*14:03
human thyroglobulin (TG) [13] = biological target: T1, human thyroglobulin (TG); experiment: flow cytometry of surface TG (anti-histidine antibody) on 293T; HLA-DRB1*14:03
[14] = biological target: T2, human β2-glycoprotein I (β2-GPI); experiment: flow cytometry of surface β2-GPI on 293T; HLA-DRB1*14:01
[15] = biological target: T2, human β2-glycoprotein I (β2-GPI); experiment: flow cytometry of surface β2-GPI on 293T; HLA-DRB1*11:01
[16] = biological target: T2, human β2-glycoprotein I (β2-GPI); experiment: flow cytometry of surface β2-GPI on 293T; HLA-DRB1*13:01
[17] = biological target: T2, human β2-glycoprotein I (β2-GPI); experiment: flow cytometry of surface β2-GPI on 293T; HLA-DRB1*01:01
[18] = biological target: T2, human β2-glycoprotein I (β2-GPI); experiment: flow cytometry of surface β2-GPI on 293T; HLA-DRB1*04:01
[19] = biological target: T2, human β2-glycoprotein I (β2-GPI); experiment: flow cytometry of surface β2-GPI on 293T cells (β2-GPI+HLA-DR4)
Procedure: The HLA-DRA*01:01 vector as an α-chain expression vector, the HLA-DRB1*04:04 vector as a β-chain expression vector, the β2-GPI vector, and the GFP vector were introduced to 293T cells, and the 293T cells were cultured. The cultured cells were reacted with an anti-β2-GPI antibody or an anti-cardiolipin antibody (aCL), and further reacted with the APC-labeled anti-human IgG antibody. Then, GFP-positive cells were subjected to flow cytometry analysis in the same manner as in Example 1A. As Control 1, the analysis was performed in the same manner, except that only the β2-GPI expression vector was introduced. As Control 2, the analysis was performed in the same manner, except that only the GFP vector was introduced. [0219] anti-β2-GPI antibody: polyclonal antibody, available from Atlas antibodies [0220] human anti-cardiolipin antibody: Clone EY2C9, supplied by Professor Atsumi, School of Medicine in Hokkaido University. Reference was made to the following paper: Ichikawa, K., M. A. Khamashta, T. Koike, E. Matsuura, and G. R. V. Hughes. 1994. P2-Glycoprotein I reactivity of monoclonal anticardiolipin antibodies from patients with the antiphospholipid syndrome. Arthritis Rheum. 37: 1453.

[20] = biological target: T2, human β2-glycoprotein I (β2-GPI); experiment: flow cytometry of surface β2-GPI on 293T; HLA-DRB1*04:06
[21] = biological target: T2, human β2-glycoprotein I (β2-GPI); experiment: flow cytometry of surface β2-GPI on 293T; HLA-DRB1*13:03
[22] = biological target: T2, human β2-glycoprotein I (β2-GPI); experiment: flow cytometry of surface β2-GPI on 293T; HLA-DRB1*07:01
[23] = biological target: T2, human β2-glycoprotein I (β2-GPI); experiment: flow cytometry of surface β2-GPI on 293T; HLA-DRB1*12:01
[24] = biological target: T2, human β2-glycoprotein I (β2-GPI); experiment: flow cytometry of surface β2-GPI on 293T; HLA-DRB1*04:05

T1 sequence (P01266 20-2768): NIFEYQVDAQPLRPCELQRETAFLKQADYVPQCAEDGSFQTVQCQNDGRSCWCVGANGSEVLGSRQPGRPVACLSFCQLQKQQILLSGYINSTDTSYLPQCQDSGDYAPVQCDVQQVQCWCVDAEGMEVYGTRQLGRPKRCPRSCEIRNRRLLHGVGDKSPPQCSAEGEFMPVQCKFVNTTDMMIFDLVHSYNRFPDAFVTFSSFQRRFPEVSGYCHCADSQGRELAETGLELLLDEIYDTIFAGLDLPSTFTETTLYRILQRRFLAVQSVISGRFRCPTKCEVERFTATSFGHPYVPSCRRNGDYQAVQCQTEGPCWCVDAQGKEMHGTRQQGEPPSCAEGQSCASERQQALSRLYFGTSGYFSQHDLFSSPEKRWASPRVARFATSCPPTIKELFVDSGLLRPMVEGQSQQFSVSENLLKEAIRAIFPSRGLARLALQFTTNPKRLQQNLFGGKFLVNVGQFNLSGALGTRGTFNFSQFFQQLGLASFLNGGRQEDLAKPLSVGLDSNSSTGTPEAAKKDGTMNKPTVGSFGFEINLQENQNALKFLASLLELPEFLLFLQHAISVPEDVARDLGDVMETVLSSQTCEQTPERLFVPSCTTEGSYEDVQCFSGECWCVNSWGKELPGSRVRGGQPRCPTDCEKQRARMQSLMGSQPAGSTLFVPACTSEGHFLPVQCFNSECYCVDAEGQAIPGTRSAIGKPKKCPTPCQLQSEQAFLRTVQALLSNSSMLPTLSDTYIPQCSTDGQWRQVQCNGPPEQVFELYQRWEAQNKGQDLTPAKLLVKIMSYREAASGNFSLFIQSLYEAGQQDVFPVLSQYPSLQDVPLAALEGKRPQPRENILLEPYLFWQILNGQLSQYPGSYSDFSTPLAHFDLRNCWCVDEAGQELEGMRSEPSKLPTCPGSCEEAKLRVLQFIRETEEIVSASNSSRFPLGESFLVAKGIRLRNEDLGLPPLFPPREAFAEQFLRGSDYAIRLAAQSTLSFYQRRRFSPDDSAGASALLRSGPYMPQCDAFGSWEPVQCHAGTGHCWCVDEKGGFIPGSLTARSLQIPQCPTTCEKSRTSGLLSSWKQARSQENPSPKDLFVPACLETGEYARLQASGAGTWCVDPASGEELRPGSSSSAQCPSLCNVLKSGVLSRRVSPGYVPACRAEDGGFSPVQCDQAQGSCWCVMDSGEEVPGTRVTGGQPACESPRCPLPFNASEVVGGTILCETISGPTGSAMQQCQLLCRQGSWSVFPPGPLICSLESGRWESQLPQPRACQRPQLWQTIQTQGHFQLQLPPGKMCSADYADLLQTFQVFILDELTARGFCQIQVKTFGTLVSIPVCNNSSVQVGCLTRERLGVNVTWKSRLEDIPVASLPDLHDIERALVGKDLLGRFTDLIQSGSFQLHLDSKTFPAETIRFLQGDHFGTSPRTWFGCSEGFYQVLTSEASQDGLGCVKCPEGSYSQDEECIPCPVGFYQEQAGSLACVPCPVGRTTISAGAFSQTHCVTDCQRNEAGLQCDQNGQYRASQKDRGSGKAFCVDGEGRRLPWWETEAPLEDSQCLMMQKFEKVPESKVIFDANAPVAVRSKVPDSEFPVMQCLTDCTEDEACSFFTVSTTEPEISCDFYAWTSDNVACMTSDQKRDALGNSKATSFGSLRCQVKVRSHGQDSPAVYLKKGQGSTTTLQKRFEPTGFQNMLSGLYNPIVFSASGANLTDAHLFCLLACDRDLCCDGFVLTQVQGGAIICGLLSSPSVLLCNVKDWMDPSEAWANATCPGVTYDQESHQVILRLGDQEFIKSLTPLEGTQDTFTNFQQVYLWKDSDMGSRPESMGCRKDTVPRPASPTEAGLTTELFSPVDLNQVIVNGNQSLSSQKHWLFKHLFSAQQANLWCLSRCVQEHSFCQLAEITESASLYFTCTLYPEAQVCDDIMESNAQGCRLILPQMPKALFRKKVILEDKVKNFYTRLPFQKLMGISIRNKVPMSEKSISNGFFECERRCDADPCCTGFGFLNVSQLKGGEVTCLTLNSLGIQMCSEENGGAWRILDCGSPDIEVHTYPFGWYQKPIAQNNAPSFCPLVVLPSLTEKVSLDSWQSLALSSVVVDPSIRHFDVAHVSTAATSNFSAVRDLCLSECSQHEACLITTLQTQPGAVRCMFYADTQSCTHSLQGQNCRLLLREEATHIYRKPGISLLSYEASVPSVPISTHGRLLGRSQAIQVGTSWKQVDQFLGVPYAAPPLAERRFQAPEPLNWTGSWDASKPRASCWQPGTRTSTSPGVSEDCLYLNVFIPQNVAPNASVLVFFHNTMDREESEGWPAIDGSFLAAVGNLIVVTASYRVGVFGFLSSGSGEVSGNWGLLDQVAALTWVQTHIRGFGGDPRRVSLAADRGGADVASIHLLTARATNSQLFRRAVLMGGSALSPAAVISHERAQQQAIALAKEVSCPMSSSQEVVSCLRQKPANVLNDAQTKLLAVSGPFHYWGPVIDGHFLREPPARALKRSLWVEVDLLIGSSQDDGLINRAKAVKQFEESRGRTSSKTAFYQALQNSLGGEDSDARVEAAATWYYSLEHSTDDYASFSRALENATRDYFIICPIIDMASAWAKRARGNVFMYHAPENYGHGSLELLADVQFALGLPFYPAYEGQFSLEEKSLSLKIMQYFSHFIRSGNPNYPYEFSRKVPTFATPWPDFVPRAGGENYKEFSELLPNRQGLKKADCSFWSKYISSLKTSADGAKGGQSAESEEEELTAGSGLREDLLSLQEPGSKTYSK

B1: HLA-DR (HLA-DRA*01:01/HLA-DRB1*01:03) (other, human)
MHC II alpha: not shown
MHC II beta: not shown
notes: whole, on cells
binding result (human thyroglobulin (TG) [1]): binds | binding result [2]: binds

B2: HLA-DR (HLA-DRA*01:01/HLA-DRB1*03:01) (other, human)
MHC II alpha: not shown
MHC II beta: not shown
notes: whole, on cells; also called HLA-DR3
binding result [3]: binds

B3: HLA-DR (HLA-DRA*01:01/HLA-DRB1*04:02) (other, human)
MHC II alpha: not shown
MHC II beta: not shown
notes: whole, on cells
binding result [4]: binds

B4: HLA-DR (HLA-DRA*01:01/HLA-DRB1*09:01) (other, human)
MHC II alpha: not shown
MHC II beta: not shown
notes: whole, on cells
binding result [5]: binds

B5: HLA-DR (HLA-DRA*01:01/HLA-DRB1*08:03) (other, human)
MHC II alpha: not shown
MHC II beta: not shown
notes: whole, on cells
binding result [6]: binds

B6: HLA-DR (HLA-DRA*01:01/HLA-DRB1*08:01) (other, human)
MHC II alpha: not shown
MHC II beta: not shown
notes: whole, on cells
binding result [7]: binds

B7: HLA-DR (HLA-DRA*01:01/HLA-DRB1*10:01) (other, human)
MHC II alpha: not shown
MHC II beta: not shown
notes: whole, on cells
binding result [8]: binds

B8: HLA-DR (HLA-DRA*01:01/HLA-DRB1*14:02) (other, human)
MHC II alpha: not shown
MHC II beta: not shown
notes: whole, on cells
binding result [9]: binds

B9: HLA-DR (HLA-DRA*01:01/HLA-DRB1*13:02) (other, human)
MHC II alpha: not shown
MHC II beta: not shown
notes: whole, on cells
binding result [10]: binds

B10: HLA-DR (HLA-DRA*01:01/HLA-DRB1*04:03) (other, human)
MHC II alpha: not shown
MHC II beta: not shown
notes: whole, on cells
binding result [11]: binds

B11: HLA-DR (HLA-DRA*01:01/HLA-DRB1*14:03) (other, human)
MHC II alpha: not shown
MHC II beta: not shown
notes: whole, on cells
binding result [12]: binds | binding result (human thyroglobulin (TG) [13]): binds

B12: HLA-DR (HLA-DRA*01:01/HLA-DRB1*14:01) (other, human)
MHC II alpha: not shown
MHC II beta: not shown
notes: whole, on cells
binding result [14]: binds

Continued, values first:

binding result [15]: binds
B13: HLA-DR (HLA-DRA*01:01/HLA-DRB1*11:01) (other, human)
MHC II alpha: not shown
MHC II beta: not shown
notes: whole, on cells

binding result [16]: binds
B14: HLA-DR (HLA-DRA*01:01/HLA-DRB1*13:01) (other, human)
MHC II alpha: not shown
MHC II beta: not shown
notes: whole, on cells

binding result [17]: binds
B15: HLA-DR (HLA-DRA*01:01/HLA-DRB1*01:01) (other, human)
MHC II alpha: not shown
MHC II beta: not shown
notes: whole, on cells; also called HLA-DR1; HLA-DR0101

binding result [18]: binds
B16: HLA-DR (HLA-DRA*01:01/HLA-DRB1*04:01) (other, human)
MHC II alpha: not shown
MHC II beta: not shown
notes: whole, on cells

binding result [19]: binds
B17: HLA-DR (HLA-DRA*01:01/HLA-DRB1*04:04) (other, human)
MHC II alpha: not shown
MHC II beta: not shown
notes: whole, on cells; also called HLA-DR4; HLA-DR0404

binding result [20]: binds
B18: HLA-DR (HLA-DRA*01:01/HLA-DRB1*04:06) (other, human)
MHC II alpha: not shown
MHC II beta: not shown
notes: whole, on cells

binding result [21]: binds
B19: HLA-DR (HLA-DRA*01:01/HLA-DRB1*13:03) (other, human)
MHC II alpha: not shown
MHC II beta: not shown
notes: whole, on cells

binding result [22]: binds
B20: HLA-DR (HLA-DRA*01:01/HLA-DRB1*07:01) (other, human)
MHC II alpha: not shown
MHC II beta: not shown
notes: whole, on cells; also called HLA-DR7; APS susceptible HLA-DR7

binding result [23]: binds
B21: HLA-DR (HLA-DRA*01:01/HLA-DRB1*12:01) (other, human)
MHC II alpha: not shown
MHC II beta: not shown
notes: whole, on cells

binding result [24]: binds
B22: HLA-DR (HLA-DRA*01:01/HLA-DRB1*04:05) (other, human)
MHC II alpha: not shown
MHC II beta: not shown
notes: whole, on cells
